In US20230258640:

Target: T1, TCPP-labelled peptide cleavage sequence for MMP-1 (GAGVPMS-MRGGAG) tethered to carboxygraphene-polyethylenimine
T1 chain: GAGVPMSMRGGAG

B1: Matrix-Metalloproteinase-1 (protein)
chain: FVLTEGNPRWEQTHLTYRIENYTPDLPRADVDHAIEKAFQLWSNVTPLTFTKVSEGQADIMISFVRGDHRDNSPFDGPGGNLAHAFQPGPGIGGDAHFDEDERWTNNFREYNLHRVAAHELGHSLGLSHSTDIGALMYPSYTFSGDVQLAQDDIDGIQAIYGRSQNPVQPIGPQTPKACDSKLTFDAITTIRGEVMFFKDRFYMRTNPFYPEVELNFISVFWPQLPNGLEAAYEFADRDEVRFFKGNKYWAVQGQNVLHGYPKDIYSSFGFPRTVKHIDAALSEENTGKTYFFVANKYWRYDEYKRSMDPGYPKMIAHDFPGIGHKVDAVFMKDGFFYFFHGTRQYKFDPKTKRILTLQKANSWFNCRKN
- estimated limit of detection (LOD): femtomolar protease activities can be detected
- fluorescence signal of released TCPP after 60 min incubation at 37 C: the intensity of the detected signal is proportional to concentration of enzyme
